Assay results taken from publication PMC6005179.

Experiments:
[1] = molecular target: preF (DS-Cav1) with a C-terminal 8x His-tag and AviTag (respiratory syncytial virus (strain not stated)) (UniProt P03420); experiment: SPR
[2] = molecular target: preF-stabilized variant of RSV F (PR-DM), tags removed, deglycosylated (respiratory syncytial virus (strain not stated)) (UniProt P03420); experiment: crystal structure

With ADI-19425 Fab, light chain Y31A variant the fold reduction in affinity against ADI-19425 [1] was > 200 fold.
With ADI-19425 Fab, light chain Y91A variant the fold reduction in affinity against ADI-19425 [1] was > 80 fold.
In the case of AM22 Fab, the stoichiometry N (Fab per preF trimer) [2] is reported as 3.
